Test results taken from patent US9782454B2 (LONGEVITY BIOTECH, INC., priority 2010, dated 2017).
No end group written: not given here.

How the values were obtained:
Glucagon receptor = molecular target: T1, Glucagon receptor (Rattus norvegicus, UniProt P30082); settings: cited from earlier work
T1 construct: Enhances glucose-stimulated; from tissue; host or cells: rat liver membranes (value quoted from the literature)

[1] = molecular target: T2, human calcitonin receptor (Homo sapiens, UniProt P30988); settings: read-out: EC50, agonist for the human calcitonin receptor; cited from earlier work
T2 sequence (P30988 25-474): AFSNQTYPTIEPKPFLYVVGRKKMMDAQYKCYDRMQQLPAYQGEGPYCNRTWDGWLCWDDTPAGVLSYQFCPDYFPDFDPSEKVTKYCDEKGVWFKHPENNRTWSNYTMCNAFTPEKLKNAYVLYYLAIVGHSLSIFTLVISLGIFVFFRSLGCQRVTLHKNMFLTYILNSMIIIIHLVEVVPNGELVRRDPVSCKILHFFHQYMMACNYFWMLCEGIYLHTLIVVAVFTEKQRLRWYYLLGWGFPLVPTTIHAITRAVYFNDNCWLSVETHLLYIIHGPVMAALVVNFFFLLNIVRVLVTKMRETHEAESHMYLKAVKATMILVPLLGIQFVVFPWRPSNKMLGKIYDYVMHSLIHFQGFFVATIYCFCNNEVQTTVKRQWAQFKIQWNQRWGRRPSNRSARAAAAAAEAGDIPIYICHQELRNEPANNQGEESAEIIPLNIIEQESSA

[2] = molecular target: VIPR2 (VPAC2) receptor, cAMP Hunter cell line expressing VIPR2 (UniProt P41587); experiment: cell-based or functional assay
Sequence of VIPR2 (VPAC2) receptor, cAMP Hunter cell line expressing VIPR2 (P41587 24-438 limits assumed): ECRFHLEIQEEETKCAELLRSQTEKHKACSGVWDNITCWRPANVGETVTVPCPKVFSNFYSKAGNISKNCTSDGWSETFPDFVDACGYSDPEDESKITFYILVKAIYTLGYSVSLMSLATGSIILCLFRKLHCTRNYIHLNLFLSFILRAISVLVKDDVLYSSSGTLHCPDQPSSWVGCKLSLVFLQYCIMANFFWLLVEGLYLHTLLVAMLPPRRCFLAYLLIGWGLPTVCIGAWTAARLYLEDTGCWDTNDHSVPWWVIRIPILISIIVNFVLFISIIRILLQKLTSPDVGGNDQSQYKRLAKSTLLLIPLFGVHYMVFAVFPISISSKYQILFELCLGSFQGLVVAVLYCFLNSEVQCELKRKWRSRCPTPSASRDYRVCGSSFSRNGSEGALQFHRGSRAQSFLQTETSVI

T1 sequence (P30082 27-485): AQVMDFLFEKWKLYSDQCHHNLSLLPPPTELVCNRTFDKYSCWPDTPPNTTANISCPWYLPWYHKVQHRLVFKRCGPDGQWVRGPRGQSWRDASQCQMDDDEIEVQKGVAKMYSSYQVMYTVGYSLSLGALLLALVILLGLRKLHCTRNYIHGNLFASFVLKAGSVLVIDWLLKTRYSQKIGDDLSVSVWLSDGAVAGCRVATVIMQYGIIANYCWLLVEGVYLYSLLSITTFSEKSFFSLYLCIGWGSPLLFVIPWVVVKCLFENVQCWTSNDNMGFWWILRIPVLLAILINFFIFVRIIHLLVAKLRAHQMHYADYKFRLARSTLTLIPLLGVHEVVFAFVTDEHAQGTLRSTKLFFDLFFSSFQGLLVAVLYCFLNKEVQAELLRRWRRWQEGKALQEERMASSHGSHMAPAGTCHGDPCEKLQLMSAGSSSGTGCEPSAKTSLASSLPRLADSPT

des-His1-{Glu9}-Glucagon (1-29) amide
agonist activity at the glucagon receptor (Glucagon receptor): activation in rat liver membranes); displays no agonist activity. Enhances glucose-stimulated | pA2 for inhibition of glucagon-induced adenylyl cyclase activation in rat liver membranes (Glucagon receptor): (Glucagon receptor antagonist (pA2 = 7.2 for inhibition of glucagon-induced adenylyl cyclase

PHM 27 (human) (HADGVFTSDFSKLLGQLSAKKYLESLM-NH2; UniProt P01282 81-107, looked up)
EC50 [1]: 11 nM

VIP analogue Compound 8 (…XRLZKQLXVKZYLNXILN) (peptide)
% Activity, cAMP agonist mode, at 1.00E-07 M (block headed Compound ID 9) [2]: 0.4% | % Activity, cAMP agonist mode, at 1.00E-08 M (block headed Compound ID 9) [2]: 1.2% | % Activity, cAMP agonist mode, at 1.00E-09 M (block headed Compound ID 9) [2]: 0.4% | % Activity, cAMP agonist mode, at 1.00E-10 M (block headed Compound ID 9) [2]: -1.1% | % Activity, cAMP agonist mode, at 1.00E-11 M (block headed Compound ID 9) [2]: 0.9% | % Activity, cAMP agonist mode, at 1.00E-12 M (block headed Compound ID 9) [2]: 0.4% | % Activity, cAMP agonist mode, at 5.00E-07 M (block headed Compound ID 9) [2]: 1.9% | % Activity, cAMP agonist mode, at 5.00E-08 M (block headed Compound ID 9) [2]: 0.9% | % Activity, cAMP agonist mode, at 5.00E-09 M (block headed Compound ID 9) [2]: 0.1% | % Activity, cAMP agonist mode, at 5.00E-10 M (block headed Compound ID 9) [2]: 1.5% | % Inhibition, cAMP antagonist mode against EC80 VIP, at 1.00E-07 M [2]: 6.5% | % Inhibition, cAMP antagonist mode against EC80 VIP, at 1.00E-08 M [2]: 9.4% | % Inhibition, cAMP antagonist mode against EC80 VIP, at 1.00E-09 M [2]: 6.5% | % Inhibition, cAMP antagonist mode against EC80 VIP, at 1.00E-10 M [2]: 4.2% | % Inhibition, cAMP antagonist mode against EC80 VIP, at 1.00E-11 M [2]: 8.7% | % Inhibition, cAMP antagonist mode against EC80 VIP, at 1.00E-12 M [2]: 3.7% | % Inhibition, cAMP antagonist mode against EC80 VIP, at 5.00E-07 M [2]: 8.4% | % Inhibition, cAMP antagonist mode against EC80 VIP, at 5.00E-08 M [2]: 6.2% | % Inhibition, cAMP antagonist mode against EC80 VIP, at 5.00E-09 M [2]: 10.9% | % Inhibition, cAMP antagonist mode against EC80 VIP, at 5.00E-10 M [2]: 12.7% | Mean RLU, cAMP agonist mode, at 1.00E-07 M (block headed Compound ID 9) [2]: 8920 RLU | Mean RLU, cAMP agonist mode, at 1.00E-08 M (block headed Compound ID 9) [2]: 9560 RLU | Mean RLU, cAMP agonist mode, at 1.00E-09 M (block headed Compound ID 9) [2]: 8560 RLU | Mean RLU, cAMP agonist mode, at 1.00E-10 M (block headed Compound ID 9) [2]: 7560 RLU | Mean RLU, cAMP agonist mode, at 1.00E-11 M (block headed Compound ID 9) [2]: 3280 RLU | Mean RLU, cAMP agonist mode, at 1.00E-12 M (block headed Compound ID 9) [2]: 9300 RLU | Mean RLU, cAMP agonist mode, at 5.00E-07 M (block headed Compound ID 9) [2]: 10200 RLU | Mean RLU, cAMP agonist mode, at 5.00E-08 M (block headed Compound ID 9) [2]: 9200 RLU | Mean RLU, cAMP agonist mode, at 5.00E-09 M (block headed Compound ID 9) [2]: 8560 RLU | Mean RLU, cAMP agonist mode, at 5.00E-10 M (block headed Compound ID 9) [2]: 3920 RLU | Mean RLU, cAMP antagonist mode against EC80 VIP, at 1.00E-07 M [2]: 79600 RLU | Mean RLU, cAMP antagonist mode against EC80 VIP, at 1.00E-08 M [2]: 77500 RLU | Mean RLU, cAMP antagonist mode against EC80 VIP, at 1.00E-09 M [2]: 79500 RLU | Mean RLU, cAMP antagonist mode against EC80 VIP, at 1.00E-10 M [2]: 81300 RLU | Mean RLU, cAMP antagonist mode against EC80 VIP, at 1.00E-11 M [2]: 78000 RLU | Mean RLU, cAMP antagonist mode against EC80 VIP, at 1.00E-12 M [2]: 81700 RLU | Mean RLU, cAMP antagonist mode against EC80 VIP, at 5.00E-07 M [2]: 64200 RLU | Mean RLU, cAMP antagonist mode against EC80 VIP, at 5.00E-08 M [2]: 79500 RLU | Mean RLU, cAMP antagonist mode against EC80 VIP, at 5.00E-09 M [2]: 76300 RLU | Mean RLU, cAMP antagonist mode against EC80 VIP, at 5.00E-10 M [2]: 74900 RLU
